Data as given in patent publication US20140087995A1 (published 2014).
Numbered stars: 1 amine (or outer) side, 2 acyl side, 3 side chain; on linkers, the order of the positions; unused ones are H or OH. Bridge positions count the residues as written; N and C are the ends. * marks the point of attachment. C20 diacid = O=C(O)CCCCCCCCCCCCCCCCCCC(=O)*; γGlu = O=C(O)[C@H](CCC(=O)[*:2])N[*:1]

T1: human calcitonin receptor (human, UniProt P30988 25-474)
T1 construct: whole, on cells; Cell membranes of a stably transfected BHK cell line (Assay VII); also called hCTR; hCT
T1 sequence (looked up): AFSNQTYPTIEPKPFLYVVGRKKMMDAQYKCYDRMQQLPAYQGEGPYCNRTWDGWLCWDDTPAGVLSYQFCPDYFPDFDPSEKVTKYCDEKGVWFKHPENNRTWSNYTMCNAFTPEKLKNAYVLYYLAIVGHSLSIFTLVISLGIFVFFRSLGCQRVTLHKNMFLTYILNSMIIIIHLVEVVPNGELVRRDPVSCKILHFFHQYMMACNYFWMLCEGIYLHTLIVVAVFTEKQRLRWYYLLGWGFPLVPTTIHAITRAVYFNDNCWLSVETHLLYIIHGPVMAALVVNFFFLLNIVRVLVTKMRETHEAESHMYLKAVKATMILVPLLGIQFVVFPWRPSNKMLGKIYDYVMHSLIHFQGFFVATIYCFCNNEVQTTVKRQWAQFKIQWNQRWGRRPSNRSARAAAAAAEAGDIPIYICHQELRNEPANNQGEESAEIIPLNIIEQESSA

T2: rat calcitonin receptor (rat, UniProt P32214 25-516)
T2 construct: whole, on cells; Cell membranes of transiently transfected BHK tk'ts 13 cells (Assay VIII); also called rCTR; rCT
T2 sequence (looked up): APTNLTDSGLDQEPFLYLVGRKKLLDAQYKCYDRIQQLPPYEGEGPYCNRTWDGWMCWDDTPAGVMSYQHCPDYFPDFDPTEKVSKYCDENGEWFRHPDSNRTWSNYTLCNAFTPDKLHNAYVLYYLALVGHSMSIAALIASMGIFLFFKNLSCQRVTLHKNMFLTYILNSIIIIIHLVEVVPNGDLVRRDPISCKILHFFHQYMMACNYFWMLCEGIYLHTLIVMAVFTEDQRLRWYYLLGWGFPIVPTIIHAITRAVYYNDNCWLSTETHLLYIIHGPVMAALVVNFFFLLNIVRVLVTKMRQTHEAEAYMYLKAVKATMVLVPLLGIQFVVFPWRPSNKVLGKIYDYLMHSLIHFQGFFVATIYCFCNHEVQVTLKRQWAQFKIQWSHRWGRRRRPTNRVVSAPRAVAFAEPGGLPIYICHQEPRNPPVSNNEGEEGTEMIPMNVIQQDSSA

T3: rat amylin receptor (rat calcitonin receptor + rat RAMP 3) (rat, UniProt P32214 25-516; Q9JJ73 23-147)
T3 construct: whole, on cells; Cell membranes of transiently transfected BHK tk'ts 13 cells (Assay VI); also called rAmylin-R; rat amylin 3(a) receptor
T3 sequence (looked up) 1: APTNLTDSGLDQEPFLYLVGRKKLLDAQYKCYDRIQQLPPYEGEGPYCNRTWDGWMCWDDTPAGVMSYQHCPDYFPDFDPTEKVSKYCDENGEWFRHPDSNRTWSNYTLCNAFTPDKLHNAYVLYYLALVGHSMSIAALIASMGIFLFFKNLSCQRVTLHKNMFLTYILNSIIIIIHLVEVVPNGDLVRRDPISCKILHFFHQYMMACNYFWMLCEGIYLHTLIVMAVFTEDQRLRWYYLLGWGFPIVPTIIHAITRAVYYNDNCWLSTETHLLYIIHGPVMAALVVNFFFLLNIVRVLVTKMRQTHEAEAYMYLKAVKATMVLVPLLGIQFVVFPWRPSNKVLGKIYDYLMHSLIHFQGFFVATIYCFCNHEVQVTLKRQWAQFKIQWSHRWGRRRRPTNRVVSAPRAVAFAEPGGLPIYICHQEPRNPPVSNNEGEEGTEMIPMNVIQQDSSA
T3 sequence (looked up) 2: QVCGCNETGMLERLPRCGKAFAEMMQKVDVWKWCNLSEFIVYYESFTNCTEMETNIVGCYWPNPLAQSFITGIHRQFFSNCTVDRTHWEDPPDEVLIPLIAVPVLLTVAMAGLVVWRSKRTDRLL


How the values were obtained:
[1] = target: T1, human calcitonin receptor; experiment: ratio IC50 human calcitonin receptor / IC50 human amylin receptor
Method: The resulting pellet was resuspended, homogenized and centrifuged (20.000 rpm, 15 min) in a buffer containing 20 mM Na-HEPES and 0.1 mM EDTA (pH 7.4, buffer 2). The resulting pellet was resuspended in buffer 2 and protein concentration was measured (BCA protein Assay, Pierce). The homogenate was kept cold during the whole procedure. The membranes were kept at −80° C. until use. The assay was performed in a 384 well Optiplate (PerkinElmer) in a total volume of 40 ul. Membranes were mixed with SPA beads. Final concentration of membranes 35 ng/μL final and SPA beads was 0.05 mg/well. Test-compounds were dissolved in DMSO and further diluted in assay buffer (50 mM Hepes, pH 7.4, 1 mM CaCl2, 5 mM MgCl₂, 0.1% OA and 0.02% Tween20). […] The final mixture was incubated with shaking at 400 rpm for 120 min at 25° C. prior to centrifugation (1500 rpm, 10 min). Samples were analyzed on TopCounter™ (Packard). The IC₅₀ was calculated using (one site binding competition analysis) GraphPad Prism5 as a measure of receptor affinity.
Membranes were prepared in the following way; the cells were rinsed with PBS and incubated with Versene for approximately 5 min before harvesting. The cells were flushed with PBS and the cell-suspension was centrifuged for 5 min at 1000 rpm. Cells were homogenized (Ultrathurrax) in a buffer containing 20 mM Na-HEPES and 10 mM EDTA (pH 7.4) and centrifuged at 20.000 rpm for 15 min. The resulting pellet was resuspended, homogenized and centrifuged (20.000 rpm, 15 min) in a buffer containing 20 mM Na-HEPES and 0.1 mM EDTA (pH 7.4, buffer 2). The resulting pellet was resuspended in buffer 2 and protein concentration was measured (BCA protein Assay, Pierce). The homogenate was kept cold during the whole procedure. The membranes were kept at −80° C. until use. Assay was performed in a 384 well Optiplate (PerkinElmer) in a total volume of 40 ul. Membranes were mixed with SPA beads.

[2] = target: T2, rat calcitonin receptor; experiment: ratio IC50 rat calcitonin receptor / IC50 rat amylin receptor
[3] = target: T2, rat calcitonin receptor; experiment: SPA competition vs 125I-calcitonin, membranes with rat CTR (Assay VIII)
[4] = target: T3, rat amylin receptor (rat calcitonin …); experiment: SPA competition vs 125I-rat amylin, membranes with rat CTR + rat RAMP3 (Assay VI)

Binder | Ratio hCT/hAmylin binding [1] | Ratio rCT/rAmylin binding [2] | IC50 [3] | IC50 [4]
KCNTATCATQRLANFLRHSSPNFGAIPSSTNVGSETY (C20 diacid-gGlu on alpha-amino of the N-terminal residue; Cys2-Cys7 disulfide; C-terminal amide (as human amylin), Acylated analogue of human amylin; also called compound 23) [N^α1-[(4S)-4-carboxy-4-(19-carboxynonadecanoylamino)butanoyl]-[Arg17,Pro21,Pro27,Glu35]-h-amylin] | 25 | 71.3 | 79.9 nM | 1.12 nM
KCNTATCATQRLANFLRHSSPNFGAIPSSTNVGHNTY (C20 diacid-gGlu on alpha-amino of the N-terminal residue; Cys2-Cys7 disulfide; C-terminal amide (as human amylin), Acylated analogue of human amylin; also called compound 40) [N^α1-[(4S)-4-carboxy-4-(19-carboxynonadecanoylamino)butanoyl]-[Arg17,Pro21,Pro27,His34]-h-amylin] | 31.1 | 46.2 | 69.2 nM | 1.5 nM
KCNTATCATQRLANFLRHSSPNFGAIPSSTNVGRNTY (C20 diacid-gGlu on alpha-amino of the N-terminal residue; Cys2-Cys7 disulfide; C-terminal amide (as human amylin), Acylated analogue of human amylin; also called compound 39) [N^α1-[(4S)-4-carboxy-4-(19-carboxynonadecanoylamino)butanoyl]-[Arg17,Pro21,Pro27,Arg34]-h-amylin] | 29 | 54.5 | 96.4 nM | 1.77 nM
KCNTATCATQRLAEFLRHSSPNFGAIPSSTNVGSNTY (C20 diacid-gGlu-2xOEG on alpha-amino of the N-terminal residue; Cys2-Cys7 disulfide; C-terminal amide (as human amylin), Acylated analogue of human amylin; also called compound 19) | 36.7 | 93.6 | 95.6 nM | 1.02 nM

Results, then the binder that gave them:

Ratio hCT/hAmylin binding [1] | Ratio rCT/rAmylin binding [2] | IC50 [3] | IC50 [4] | Binder
26 | – | – | – | {C20 diacid-γGlu-γGlu}-KCNTATCATQRLAEFLRHSSPNFGAIPSSTNVGSNTY-NH2 (disulfide 2-7; SMILES CC[C@H](C)[C@H](NC(=O)[C@H](C)NC(=O)CNC(=O)[C@H](Cc1ccccc1)NC(=O)[C@H](CC(N)=O)NC(=O)[C@@H]1CCCN1C(=O)[C@H](CO)NC(=O)[C@H](CO)NC(=O)[C@H](Cc1c[nH]cn1)NC(=O)[C@H](CCCNC(=N)N)NC(=O)[C@H](CC(C)C)NC(=O)[C@H](Cc1ccccc1)NC(=O)[C@H](CCC(=O)O)NC(=O)[C@H](C)NC(=O)[C@H](CC(C)C)NC(=O)[C@H](CCCNC(=N)N)NC(=O)[C@H](CCC(N)=O)NC(=O)[C@@H](NC(=O)[C@H](C)NC(=O)[C@@H]1CSSC[C@H](NC(=O)[C@H](CCCCN)NC(=O)CC[C@H](NC(=O)CC[C@H](NC(=O)CCCCCCCCCCCCCCCCCCC(=O)O)C(=O)O)C(=O)O)C(=O)N[C@@H](CC(N)=O)C(=O)N[C@@H]([C@@H](C)O)C(=O)N[C@@H](C)C(=O)N[C@@H]([C@@H](C)O)C(=O)N1)[C@@H](C)O)C(=O)N1CCC[C@H]1C(=O)N[C@@H](CO)C(=O)N[C@@H](CO)C(=O)N[C@H](C(=O)N[C@@H](CC(N)=O)C(=O)N[C@H](C(=O)NCC(=O)N[C@@H](CO)C(=O)N[C@@H](CC(N)=O)C(=O)N[C@H](C(=O)N[C@@H](Cc1ccc(O)cc1)C(N)=O)[C@@H](C)O)C(C)C)[C@@H](C)O, Acylated analogue of human amylin; also called compound 15)
20.5 | 44.9 | 54.9 nM | 1.22 nM | {C20 diacid-γGlu}-KCNTATCATQRLANFLRHSSPNFGAIPSSTPVGSETY-NH2 (disulfide 2-7; SMILES CC[C@H](C)[C@H](NC(=O)[C@H](C)NC(=O)CNC(=O)[C@H](Cc1ccccc1)NC(=O)[C@H](CC(N)=O)NC(=O)[C@@H]1CCCN1C(=O)[C@H](CO)NC(=O)[C@H](CO)NC(=O)[C@H](Cc1c[nH]cn1)NC(=O)[C@H](CCCNC(=N)N)NC(=O)[C@H](CC(C)C)NC(=O)[C@H](Cc1ccccc1)NC(=O)[C@H](CC(N)=O)NC(=O)[C@H](C)NC(=O)[C@H](CC(C)C)NC(=O)[C@H](CCCNC(=N)N)NC(=O)[C@H](CCC(N)=O)NC(=O)[C@@H](NC(=O)[C@H](C)NC(=O)[C@@H]1CSSC[C@H](NC(=O)[C@H](CCCCN)NC(=O)CC[C@H](NC(=O)CCCCCCCCCCCCCCCCCCC(=O)O)C(=O)O)C(=O)N[C@@H](CC(N)=O)C(=O)N[C@@H]([C@@H](C)O)C(=O)N[C@@H](C)C(=O)N[C@@H]([C@@H](C)O)C(=O)N1)[C@@H](C)O)C(=O)N1CCC[C@H]1C(=O)N[C@@H](CO)C(=O)N[C@@H](CO)C(=O)N[C@H](C(=O)N1CCC[C@H]1C(=O)N[C@H](C(=O)NCC(=O)N[C@@H](CO)C(=O)N[C@@H](CCC(=O)O)C(=O)N[C@H](C(=O)N[C@@H](Cc1ccc(O)cc1)C(N)=O)[C@@H](C)O)C(C)C)[C@@H](C)O, Acylated analogue of human amylin; also called compound 28)
23.6 | 36.1 | 114 nM | 3.14 nM | {C20 diacid-γGlu}-KCNTATCATQRLAHFLRHSSPNFGAIPSSTNVGSETY-NH2 (disulfide 2-7; SMILES CC[C@H](C)[C@H](NC(=O)[C@H](C)NC(=O)CNC(=O)[C@H](Cc1ccccc1)NC(=O)[C@H](CC(N)=O)NC(=O)[C@@H]1CCCN1C(=O)[C@H](CO)NC(=O)[C@H](CO)NC(=O)[C@H](Cc1c[nH]cn1)NC(=O)[C@H](CCCNC(=N)N)NC(=O)[C@H](CC(C)C)NC(=O)[C@H](Cc1ccccc1)NC(=O)[C@H](Cc1c[nH]cn1)NC(=O)[C@H](C)NC(=O)[C@H](CC(C)C)NC(=O)[C@H](CCCNC(=N)N)NC(=O)[C@H](CCC(N)=O)NC(=O)[C@@H](NC(=O)[C@H](C)NC(=O)[C@@H]1CSSC[C@H](NC(=O)[C@H](CCCCN)NC(=O)CC[C@H](NC(=O)CCCCCCCCCCCCCCCCCCC(=O)O)C(=O)O)C(=O)N[C@@H](CC(N)=O)C(=O)N[C@@H]([C@@H](C)O)C(=O)N[C@@H](C)C(=O)N[C@@H]([C@@H](C)O)C(=O)N1)[C@@H](C)O)C(=O)N1CCC[C@H]1C(=O)N[C@@H](CO)C(=O)N[C@@H](CO)C(=O)N[C@H](C(=O)N[C@@H](CC(N)=O)C(=O)N[C@H](C(=O)NCC(=O)N[C@@H](CO)C(=O)N[C@@H](CCC(=O)O)C(=O)N[C@H](C(=O)N[C@@H](Cc1ccc(O)cc1)C(N)=O)[C@@H](C)O)C(C)C)[C@@H](C)O, Acylated analogue of human amylin; also called compound 30)
64.4 | 52 | 89.2 nM | 1.72 nM | KCNTATCATQRLANFLRHSSPNFGAIPSSTNVGSKTY (C20 diacid-gGlu on alpha-amino of the N-terminal residue; Cys2-Cys7 disulfide; C-terminal amide (as human amylin), Acylated analogue of human amylin; also called compound 34) [N^α1-[(4S)-4-carboxy-4-(19-carboxynonadecanoylamino)butanoyl]-[Arg17,Pro21,Pro27,Lys35]-h-amylin]
